Measured values taken from paper doi:10.1101/787473, “C9orf72 arginine-rich dipeptide repeat proteins disrupt importin β-mediated nuclear import” (bioRxiv, 2019).
No end group written: not given here.

Tests used:
Settings in all cases: both partners purified
[1] = molecular target: T1, full length human importin β (KPNB1), expressed from pET30a-WT Importin β (pKW485) (human, UniProt Q14974 1-876); assay: FRET or BRET; displacement of importin β from the Rango FRET sensor in solution: 20 nM Rango + 50 nM importin β in TBS pH 7.4, 0.005% Tween-20, increasing concentrations of DPR 10-mers or ZZ-RanQ69L-GTP; acceptor/donor emission ratio, fit to one-site binding model
T1 construct: importin β (KPNB1), human, wild type, full length; also called unlabeled importin β

[2] = molecular target: T2, GST-tagged S. cerevisiae Nup100(1-307) (S. cerevisiae, UniProt Q02629 1-307); assay: bead halo assay; GST-fusion yeast FG- and GLFG-domain baits on glutathione beads; AF488-labeled DPRs in binding buffer, without added importin β; rim vs. background ratio against the Nup116 F>A mutant
T2 construct: Nup100, S. cerevisiae, residues 1-307 (GLFG domain fragment); Bait on glutathione beads; also called FG-domains of Nup100; Nup100 fragments; source: E. coli T7 Shuffle, purified (glutathione-sepharose)

[3] = molecular target: T3, GST-tagged S. cerevisiae Nup100(1-610) (S. cerevisiae, UniProt Q02629 1-610); assay: as above
T3 construct: Nup100, S. cerevisiae, residues 1-610 (GLFG domain fragment); Bait on glutathione beads; also called FG-domains of Nup100; Nup100 fragments; source: E. coli T7 Shuffle, purified (glutathione-sepharose)

[4] = molecular target: T4, biotinylated WT importin β-Avitag (pKW1982; pK1099) (human, UniProt Q14974 1-876, biotin on the Avitag (co-expressed biotin ligase, 100 µM D-biotin)); assay: bead halo assay; biotinylated bait (importin β-Avitag or BSA) on neutravidin beads; fluorescent prey (AF488-DPR 200 nM, Rango) in binding buffer (20 mM HEPES pH 7.4, 150 mM KOAc, 2 mM Mg(OAc)2, 1 mM DTT, 0.1% Tween-20) with EHBN; room temperature, at least 30 min; confocal rim vs. background ratio
T4 construct: importin β (KPNB1), human, wild type; called full-length in the results of the bead halo assay; Immobilised on neutravidin beads by the biotinylated Avitag; also called biotinylated importin β; full-length importin β-coated beads; source: E. coli BL21DE3 co-transfected with pAC-biotin ligase, purified (Ni-NTA)
T4 sequence (Q14974 whole entry): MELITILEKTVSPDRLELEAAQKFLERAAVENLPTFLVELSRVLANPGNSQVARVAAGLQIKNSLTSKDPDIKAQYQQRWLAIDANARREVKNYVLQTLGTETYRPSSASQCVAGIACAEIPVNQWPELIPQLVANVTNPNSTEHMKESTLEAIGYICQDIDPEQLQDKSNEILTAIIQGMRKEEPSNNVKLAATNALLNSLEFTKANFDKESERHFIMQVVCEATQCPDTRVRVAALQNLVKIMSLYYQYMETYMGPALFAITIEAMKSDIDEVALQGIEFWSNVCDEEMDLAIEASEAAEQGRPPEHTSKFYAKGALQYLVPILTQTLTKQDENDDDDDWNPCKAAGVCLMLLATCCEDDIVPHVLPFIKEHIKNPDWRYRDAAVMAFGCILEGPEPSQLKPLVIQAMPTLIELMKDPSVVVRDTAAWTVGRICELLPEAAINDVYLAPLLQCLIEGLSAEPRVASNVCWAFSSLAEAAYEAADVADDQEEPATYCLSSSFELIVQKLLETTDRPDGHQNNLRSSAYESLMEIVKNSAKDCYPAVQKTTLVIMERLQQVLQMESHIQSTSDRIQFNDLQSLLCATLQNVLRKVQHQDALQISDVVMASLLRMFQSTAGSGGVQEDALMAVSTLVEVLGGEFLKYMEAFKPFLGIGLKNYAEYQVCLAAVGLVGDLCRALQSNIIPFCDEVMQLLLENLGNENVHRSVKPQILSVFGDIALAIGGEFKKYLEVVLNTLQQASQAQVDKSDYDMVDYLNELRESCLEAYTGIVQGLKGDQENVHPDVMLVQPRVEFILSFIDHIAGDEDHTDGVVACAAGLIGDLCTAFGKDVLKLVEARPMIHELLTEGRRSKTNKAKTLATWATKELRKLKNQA

T3 sequence (Q02629 1-610): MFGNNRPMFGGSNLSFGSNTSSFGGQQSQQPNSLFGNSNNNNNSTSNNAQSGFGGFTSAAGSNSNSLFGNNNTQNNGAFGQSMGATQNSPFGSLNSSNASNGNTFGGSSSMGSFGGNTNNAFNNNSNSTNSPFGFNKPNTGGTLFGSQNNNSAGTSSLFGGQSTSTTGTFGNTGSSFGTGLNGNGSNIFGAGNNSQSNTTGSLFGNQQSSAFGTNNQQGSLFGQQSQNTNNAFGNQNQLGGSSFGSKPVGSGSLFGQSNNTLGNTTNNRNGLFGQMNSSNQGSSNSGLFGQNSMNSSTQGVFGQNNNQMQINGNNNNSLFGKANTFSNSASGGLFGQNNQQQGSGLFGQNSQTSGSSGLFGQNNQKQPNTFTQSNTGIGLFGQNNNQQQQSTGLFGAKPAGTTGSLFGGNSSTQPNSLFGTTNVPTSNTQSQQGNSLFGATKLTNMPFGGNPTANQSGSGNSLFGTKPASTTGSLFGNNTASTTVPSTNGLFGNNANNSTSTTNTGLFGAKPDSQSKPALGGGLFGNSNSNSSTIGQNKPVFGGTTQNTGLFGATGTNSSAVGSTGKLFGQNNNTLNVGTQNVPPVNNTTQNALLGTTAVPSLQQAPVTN
T2 sequence (Q02629 1-307): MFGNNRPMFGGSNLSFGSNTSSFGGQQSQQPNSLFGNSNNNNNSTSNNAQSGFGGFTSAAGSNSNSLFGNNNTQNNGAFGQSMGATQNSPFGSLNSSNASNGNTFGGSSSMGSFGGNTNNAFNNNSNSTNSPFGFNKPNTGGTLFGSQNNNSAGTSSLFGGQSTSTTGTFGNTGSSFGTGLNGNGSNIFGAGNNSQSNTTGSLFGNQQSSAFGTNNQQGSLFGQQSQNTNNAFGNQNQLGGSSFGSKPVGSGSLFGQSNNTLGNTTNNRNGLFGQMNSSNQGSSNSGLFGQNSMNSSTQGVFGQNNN
T1 sequence (Q14974 whole entry): as the sequence (Q14974 whole entry) above

Row | Binder | binding result [1] | binding result [2] | binding result [3] | halo intensity (rim vs. background) against control beads [4]
1 | GRGRGRGRGRGRGRGRGRGRKC (C9orf72 poly-GR dipeptide repeat, ten repeats, with C-terminal K (solubility) and C (labelling); Unlabelled peptide; The C-terminal KC was added by the authors; also called poly-GR; R-DPR; source: synthetic peptide (Genscript; 21st Century Biochemicals)) | binds |  |  | 
2 | PRPRPRPRPRPRPRPRPRPRKC(Alexa Fluor 488 C5‑maleimide) (C9orf72 poly-PR dipeptide repeat, ten repeats, with C-terminal K and C; also called AF488-PR10; AF488-labeled R-DPR; source: synthetic peptide (Genscript)) [AF488-labeled PR10] |  | binds | binds | ~2 fold
3 | GRGRGRGRGRGRGRGRGRGRKC(Alexa Fluor 488 C5‑maleimide) (C9orf72 poly-GR dipeptide repeat, ten repeats, with C-terminal K and C; also called AF488-GR10; AF488-labeled R-DPR; source: synthetic peptide (Genscript)) [AF488-labeled GR10] |  | binds | binds | ~2 fold
4 | PRPRPRPRPRPRPRPRPRPRKC (C9orf72 poly-PR dipeptide repeat, ten repeats, with C-terminal K (solubility) and C (labelling); Unlabelled peptide; The C-terminal KC was added by the authors; also called R-DPR; source: synthetic peptide (Genscript; 21st Century Biochemicals)) | binds |  |  | 
